According to doi:10.1101/2022.05.25.493364:

Molecular target: cGAS (cyclic GMP-AMP synthase) of the Serratia marcescens E2-CBASS operon, N-terminal 6×His-tag (Serratia marcescens)
Assay: in vitro covalent bonding assay

“E2 of the Serratia marcescens E2-CBASS operon, N-terminal 6×His-tag (enzyme)” was tested, and the rate of isopeptide bond (+DTT) formation was 0.5 min⁻¹ and the rate of total bond (thioester+isopeptide, -DTT) formation was 0.63 min⁻¹.
